This is an account of results in patent US20040018971A1 (published 2004).

Assay [1] deals with HLA-A*0301 (purified HLA class I molecule) (human). Put plainly: competition vs 125I standard peptide, purified HLA.
Assay [2] addresses T1, HLA-A*1101 (purified HLA class I molecule) (human).
T1 construct: Purified MHC molecule
Put plainly: competition vs 125I standard peptide, purified HLA.

Assay [3] has as its target T2, HLA-A*0201 (human).
T2 construct: also called HLA-A2.1
Put plainly: competition with 125I-labelled standard peptide 941.01 ([..]) on purified HLA, gel filtration.

The target in assay [4] is T3, HLA-A*0301 (purified HLA class I molecule) (human).
T3 construct: also called A3
Put plainly: inhibition of 125I probe peptide binding to purified HLA; ratio to standard peptide.

Assay [5] concerns the target HLA-A*1101 (purified HLA class I molecule) (human). The assay is described as above.
Assay [6] deals with HLA-A*1101 (human). Briefly: inhibition of 125I-labelled standard peptide binding to purified HLA, gel filtration.
Assay [7] has as its target HLA-A*0301 (human). The assay is described as above.
The target of assay [8] is HLA-A*6801 (human). Put plainly: inhibition of 125I probe peptide binding to purified HLA.
Assay [9] addresses HLA-A*0301 (human). Described as above.

With GVGSPYVSR [HER2/neu peptide, position 776, 9 amino acids], the relative binding ratio is 0.001 ratio (IC50 standard/IC50 test) in assay [1] and 0.0066 ratio (IC50 standard/IC50 test) in assay [2]. GILLVVVLGV (Synthetic peptide) [HER2/neu A02 supermotif peptide, position 660, 10 amino acids]: the relative binding ratio in [3] is 0.0007 ratio (IC50 of standard peptide / IC50 of test peptide).

Turning to GLGISWLGLR (also called Her2/neu.447 (10-mer)) [HER2/neu peptide, position 447, 10 amino acids], the relative binding ratio in [4] is 0.0037 ratio (IC50 standard / IC50 test); in assay [5], 0.0001 ratio (IC50 standard / IC50 test). For TLIDTNRSR (Synthetic A3 supermotif peptide) [HER2/neu peptide, position 182, 9 amino acids], the relative binding ratio was 0.0005 ratio (IC50 of standard peptide / IC50 of test peptide) in assay [6] and 0.0004 ratio (IC50 of standard peptide / IC50 of test peptide) in assay [7]. Turning to GLGMEHLREV (Synthetic peptide) [HER2/neu A02 supermotif peptide, position 344, 10 amino acids], the relative binding ratio in assay [3] is 0.0017 ratio (IC50 of standard peptide / IC50 of test peptide). TVPWDQLFR (Synthetic A3 supermotif peptide) [HER2/neu peptide, position 479, 9 amino acids]: the results for the relative binding ratio in assay [6] and in assay [7] were 0.0072 ratio (IC50 of standard peptide / IC50 of test peptide) and 0.0006 ratio (IC50 of standard peptide / IC50 of test peptide), respectively.

GLRELQLRSL (Synthetic peptide) [HER2/neu A02 supermotif peptide, position 136, 10 amino acids]: the relative binding ratio in [3] was 0.0001 ratio (IC50 of standard peptide / IC50 of test peptide).

Turning to CLLDHVRENR (also called Her2/neu.805 (10-mer)) [HER2/neu peptide, position 805, 10 amino acids], the values for the relative binding ratio in [4] and in assay [5] were 0.0003 ratio (IC50 standard / IC50 test) and 0.0001 ratio (IC50 standard / IC50 test), respectively.

For QVRQVPLQR (Synthetic A3 supermotif peptide) [HER2/neu peptide, position 90, 9 amino acids], the relative binding ratio in assay [6] is 0.0005 ratio (IC50 of standard peptide / IC50 of test peptide); in [7], 0.0029 ratio (IC50 of standard peptide / IC50 of test peptide).

Consider GIWIPDGENV (Synthetic peptide) [HER2/neu A02 supermotif peptide, position 737, 10 amino acids], for which the relative binding ratio in [3] is 0.0002 ratio (IC50 of standard peptide / IC50 of test peptide). The same measure, in the same setting: as for GIPAREIPDL (Synthetic peptide) [HER2/neu A02 supermotif peptide, position 925, 10 amino acids], the figure is 0.0001 ratio (IC50 of standard peptide / IC50 of test peptide).

Turning to LIKRRQQKIR [HER2/neu peptide, position 674, 10 amino acids], the figures for the relative binding ratio in [1] and in [2] were 0.0002 ratio (IC50 standard/IC50 test) and 0.0001 ratio (IC50 standard/IC50 test), respectively.

For IISAVVGILL (Synthetic peptide) [HER2/neu A02 supermotif peptide, position 654, 10 amino acids], in [3], the relative binding ratio is 0.012 ratio (IC50 of standard peptide / IC50 of test peptide). In the case of GLGISWLGL (Synthetic peptide) [HER2/neu A02 supermotif peptide, position 447, 9 amino acids], the relative binding ratio in assay [3] was 0.0018 ratio (IC50 of standard peptide / IC50 of test peptide). For the molecule DVRPQPPSPR (also called Her2/neu.1144 (10-mer)) [HER2/neu peptide, position 1144, 10 amino acids], the relative binding ratio in assay [4] is 0.0003 ratio (IC50 standard / IC50 test); in assay [5] it was 0.0001 ratio (IC50 standard / IC50 test). For GVGSPYVSRL (Synthetic peptide) [HER2/neu A02 supermotif peptide, position 776, 10 amino acids], the relative binding ratio in assay [3] is 0.0001 ratio (IC50 of standard peptide / IC50 of test peptide). On the same count and under the same terms, as for GVLIQRNPQL (Synthetic peptide) [HER2/neu A02 supermotif peptide, position 152, 10 amino acids], the figure is 0.0036 ratio (IC50 of standard peptide / IC50 of test peptide); as for GMSYLEDVRL (Synthetic peptide) [HER2/neu A02 supermotif peptide, position 832, 10 amino acids], 0.0017 ratio (IC50 of standard peptide / IC50 of test peptide). Regarding VLIAHNQVR (Synthetic A3 supermotif peptide) [HER2/neu peptide, position 84, 9 amino acids], the relative binding ratio in [6] was 0.0007 ratio (IC50 of standard peptide / IC50 of test peptide); in assay [7] it was 0.0033 ratio (IC50 of standard peptide / IC50 of test peptide). Turning to GATLERPKTL (Synthetic peptide) [HER2/neu A02 supermotif peptide, position 1164, 10 amino acids], in [3], the relative binding ratio was 0.0002 ratio (IC50 of standard peptide / IC50 of test peptide). For AMPNQAQMR (also called Her2/neu.705 (9-mer)) [HER2/neu peptide, position 705, 9 amino acids], the relative binding ratio in [4] was 0.0004 ratio (IC50 standard / IC50 test); in assay [5], 0.0006 ratio (IC50 standard / IC50 test). Turning to ALTLIDTNR (also called Her2/neu.180 (9-mer)) [HER2/neu peptide, position 180, 9 amino acids], the relative binding ratio in assay [4] is 0.0004 ratio (IC50 standard / IC50 test); in [5], 0.0005 ratio (IC50 standard / IC50 test). In the case of HVVPWDQLFK (synthetic analog peptide) [Her2/neu.478.V2K10], the IC50 worked out at 8.9 nM in assay [8] and 180 nM in assay [9]. As to EVTAEDGTQR (also called Her2/neu.321 (10-mer)) [HER2/neu peptide, position 321, 10 amino acids], the relative binding ratio in [4] is 0.0002 ratio (IC50 standard / IC50 test); in [5], 0.0001 ratio (IC50 standard / IC50 test).

For the molecule LACHQLCAR [HER2/neu peptide, position 509, 9 amino acids], the relative binding ratio was -0.0002 ratio (IC50 standard/IC50 test) in assay [1] and 0.0003 ratio (IC50 standard/IC50 test) in assay [2]. The matching figures for KIRKYTMR [HER2/neu peptide, position 681, 8 amino acids]: 0.001 ratio (IC50 standard/IC50 test) and 0.0004 ratio (IC50 standard/IC50 test).

In the case of DLAARNVLVK (also called Her2/neu.845 (10-mer)) [HER2/neu peptide, position 845, 10 amino acids], the results for the relative binding ratio in [4] and in assay [5] were 0.0018 ratio (IC50 standard / IC50 test) and 0.0007 ratio (IC50 standard / IC50 test), respectively. Regarding KIPVAIKVLR [HER2/neu peptide, position 747, 10 amino acids], the relative binding ratio in assay [1] was 0.0009 ratio (IC50 standard/IC50 test); in assay [2], 0.0099 ratio (IC50 standard/IC50 test).

Turning to HVRENRGRL (Synthetic peptide) [HER2/neu A02 supermotif peptide, position 809, 9 amino acids], the relative binding ratio in [3] was 0.0002 ratio (IC50 of standard peptide / IC50 of test peptide). Regarding GISWLGLRSL (Synthetic peptide) [HER2/neu A02 supermotif peptide, position 449, 10 amino acids], the relative binding ratio in [3] was 0.0003 ratio (IC50 of standard peptide / IC50 of test peptide).

On to LSPGKNGVVK [HER2/neu peptide, position 1173, 10 amino acids], for which the figures for the relative binding ratio in [1] and in assay [2] were -0.0002 ratio (IC50 standard/IC50 test) and 0.0003 ratio (IC50 standard/IC50 test), respectively.

In the case of SSEDCQSLTR (Synthetic A3 supermotif peptide) [HER2/neu peptide, position 208, 10 amino acids], the relative binding ratio was 0.002 ratio (IC50 of standard peptide / IC50 of test peptide) in assay [6] and -0.0002 ratio (IC50 of standard peptide / IC50 of test peptide) in assay [7]. For the molecule HVKITDFGL (Synthetic peptide) [HER2/neu A02 supermotif peptide, position 858, 9 amino acids], the relative binding ratio in assay [3] is 0.0002 ratio (IC50 of standard peptide / IC50 of test peptide). Same read-out and setting: as for HADGGKVPI (Synthetic peptide) [HER2/neu A02 supermotif peptide, position 878, 9 amino acids], the figure is 0.0002 ratio (IC50 of standard peptide / IC50 of test peptide). For the molecule HSCVDLDDK [HER2/neu peptide, position 632, 9 amino acids], the relative binding ratio is -0.0002 ratio (IC50 standard/IC50 test) in assay [1] and 0.0007 ratio (IC50 standard/IC50 test) in assay [2].

For the molecule GILIKRRQQK (also called Her2/neu.672 (10-mer)) [HER2/neu peptide, position 672, 10 amino acids], the relative binding ratio in [4] was 0.015 ratio (IC50 standard / IC50 test); in assay [5] it was 0.0014 ratio (IC50 standard / IC50 test). In the case of GLACHQLCAR (also called Her2/neu.508 (10-mer)) [HER2/neu peptide, position 508, 10 amino acids], the relative binding ratio is 0.011 ratio (IC50 standard / IC50 test) in assay [4] and 0.0001 ratio (IC50 standard / IC50 test) in assay [5]. For the molecule CAAGCTGPK (also called Her2/neu.240 (9-mer)) [HER2/neu peptide, position 240, 9 amino acids], the relative binding ratio in [4] and in [5] was 0.0021 ratio (IC50 standard / IC50 test) each time. For LALTLIDTNR [HER2/neu peptide, position 179, 10 amino acids], the relative binding ratio in [1] was -0.0002 ratio (IC50 standard/IC50 test); in assay [2], 0.0003 ratio (IC50 standard/IC50 test). As for GASPGGLREL (Synthetic peptide) [HER2/neu A02 supermotif peptide, position 131, 10 amino acids], the relative binding ratio in assay [3] is 0.0001 ratio (IC50 of standard peptide / IC50 of test peptide).

For the molecule QALLHTANR (Synthetic A3 supermotif peptide) [HER2/neu peptide, position 491, 9 amino acids], the relative binding ratio is 0.001 ratio (IC50 of standard peptide / IC50 of test peptide) in [6] and 0.0046 ratio (IC50 of standard peptide / IC50 of test peptide) in assay [7]. For GAYSLTLQGL (Synthetic peptide) [HER2/neu A02 supermotif peptide, position 439, 10 amino acids], the relative binding ratio in [3] is 0.003 ratio (IC50 of standard peptide / IC50 of test peptide).

Consider GAVENPEYL (Synthetic peptide) [HER2/neu A02 supermotif peptide, position 1189, 9 amino acids], for which the relative binding ratio in [3] is 0.0002 ratio (IC50 of standard peptide / IC50 of test peptide). With ETEYHADGGK (also called Her2/neu.874 (10-mer)) [HER2/neu peptide, position 874, 10 amino acids], the relative binding ratio is 0.0003 ratio (IC50 standard / IC50 test) in assay [4] and 0.0001 ratio (IC50 standard / IC50 test) in [5].

Regarding ALESILRRR (also called Her2/neu.890 (9-mer)) [HER2/neu peptide, position 890, 9 amino acids], the figures for the relative binding ratio in assay [4] and in assay [5] were 0.0013 ratio (IC50 standard / IC50 test) and 0.0006 ratio (IC50 standard / IC50 test), respectively. The matching figures for GLPREYVNAR (also called Her2/neu.549 (10-mer)) [HER2/neu peptide, position 549, 10 amino acids]: 0.0002 ratio (IC50 standard / IC50 test) and 0.0003 ratio (IC50 standard / IC50 test).

With HADGGKVPIK [HER2/neu peptide, position 878, 10 amino acids], the relative binding ratio was 0.0003 ratio (IC50 standard/IC50 test) in assay [1] and 0.0008 ratio (IC50 standard/IC50 test) in assay [2]. VARCPSGVK (Synthetic A3 supermotif peptide) [HER2/neu peptide, position 597, 9 amino acids]: the relative binding ratio is -0.0002 ratio (IC50 of standard peptide / IC50 of test peptide) in assay [6] and 0.01 ratio (IC50 of standard peptide / IC50 of test peptide) in [7].

Turning to GICELHCPAL (Synthetic peptide) [HER2/neu A02 supermotif peptide, position 262, 10 amino acids], in assay [3], the relative binding ratio is 0.0005 ratio (IC50 of standard peptide / IC50 of test peptide). For CTGTDMKLR (also called Her2/neu.26 (9-mer)) [HER2/neu peptide, position 26, 9 amino acids], the relative binding ratio in assay [4] is 0.0002 ratio (IC50 standard / IC50 test); in assay [5], 0.0005 ratio (IC50 standard / IC50 test). With GICLTSTVQL (Synthetic peptide) [HER2/neu A02 supermotif peptide, position 787, 10 amino acids], the relative binding ratio in assay [3] is 0.0004 ratio (IC50 of standard peptide / IC50 of test peptide). For the molecule RILKETELR (Synthetic A3 supermotif peptide) [HER2/neu peptide, position 713, 9 amino acids], the relative binding ratio in assay [6] is 0.0038 ratio (IC50 of standard peptide / IC50 of test peptide); in assay [7], 0.0007 ratio (IC50 of standard peptide / IC50 of test peptide).
